Biological target: EGFRvIII (表皮生长因子受体III型突变体) (human) (UniProt P00533)
Test: flow cytometry; antibody supernatant on EGFRvIII-PBMC engineered cells, detected with anti-mouse-APC IgG

B1: Anti EGFRvIII抗体 (抗EGFRvIII单克隆抗体) (antibody, V domains shown)
VH: QVQTQQSGTELVRPGALVKLSCKPSGFNIKDYYMHWVKQRPEQGLEWIGWIDPENGKTKYAPKFQGKAIITADRSSNTAYLQLSSLTSEDTAVYYCAGTADWGQGTTVTVSS
VL: DIQLTQSPLTLSVSIGQPASISCKSSQSLLHSDGETYLNWLLQRPGQSPKRLIYLVSKLDSGVPDRFTGTGSGTDFTLKISRVEAEDLGVYYCWQGKHFPYTFGGGTKLEI
B1 gave a 结合率 (APC阳性比率) of 93.7%.

From patent publication CN116715768A
